{"source": "patent US20210032299A1", "about": "(Eli Lilly, published 2021)", "binders": {"B1": {"name": "Example 74 (peptide)", "peptide": "YXEGTXISDYSIXLDKKHQXDFVEXLLEGGPSSGAPPPS", "modifications": "Aib2; Iva6; αMeL13; K17((2-[2-(2-Amino-ethoxy)-ethoxy]-acetyl)2-(γ-Glu)-CO-(CH2)18-CO2H); Aib20; 4-Pal25; C-terminal amide"}, "B2": {"name": "Example 77 (peptide)", "peptide": "B1 peptide with K16X, G29T", "modifications": "Aib2; Iva6; αMeL13; Orn16; K17((2-[2-(2-Amino-ethoxy)-ethoxy]-acetyl)2-(γ-Glu)-CO-(CH2)18-CO2H); Aib20; 4-Pal25; C-terminal amide"}, "B3": {"name": "Example 75 (peptide)", "peptide": "B1 peptide with G29T", "modifications": "Aib2; Iva6; αMeL13; K17((2-[2-(2-Amino-ethoxy)-ethoxy]-acetyl)2-(γ-Glu)-CO-(CH2)18-CO2H); Aib20; 4-Pal25; C-terminal amide"}, "B4": {"name": "Example 76 (peptide)", "peptide": "B1 peptide with K16X", "modifications": "Aib2; Iva6; αMeL13; Orn16; K17((2-[2-(2-Amino-ethoxy)-ethoxy]-acetyl)2-(γ-Glu)-CO-(CH2)18-CO2H); Aib20; 4-Pal25; C-terminal amide"}, "B5": {"name": "Example 81 (peptide)", "peptide": "Y[Aib]EGTFISDYSI[αMeL]LD[Orn]K([AEEA-AEEA-γGlu-C20 diacid])HQ[Aib]DFVE[4Pal]LLEQGPSSGAPPPS-NH2", "modifications": "N-terminus assumed", "SMILES": "CC[C@H](C)[C@H](NC(=O)[C@H](Cc1ccccc1)NC(=O)[C@@H](NC(=O)CNC(=O)[C@H](CCC(=O)O)NC(=O)C(C)(C)NC(=O)[C@@H](N)Cc1ccc(O)cc1)[C@@H](C)O)C(=O)N[C@@H](CO)C(=O)N[C@@H](CC(=O)O)C(=O)N[C@@H](Cc1ccc(O)cc1)C(=O)N[C@@H](CO)C(=O)N[C@H](C(=O)N[C@@](C)(CC(C)C)C(=O)N[C@@H](CC(C)C)C(=O)N[C@@H](CC(=O)O)C(=O)N[C@@H](CCCN)C(=O)N[C@@H](CCCCNC(=O)COCCOCCNC(=O)COCCOCCNC(=O)CC[C@H](NC(=O)CCCCCCCCCCCCCCCCCCC(=O)O)C(=O)O)C(=O)N[C@@H](Cc1c[nH]cn1)C(=O)N[C@@H](CCC(N)=O)C(=O)NC(C)(C)C(=O)N[C@@H](CC(=O)O)C(=O)N[C@@H](Cc1ccccc1)C(=O)N[C@H](C(=O)N[C@@H](CCC(=O)O)C(=O)N[C@@H](Cc1ccncc1)C(=O)N[C@@H](CC(C)C)C(=O)N[C@@H](CC(C)C)C(=O)N[C@@H](CCC(=O)O)C(=O)N[C@@H](CCC(N)=O)C(=O)NCC(=O)N1CCC[C@H]1C(=O)N[C@@H](CO)C(=O)N[C@@H](CO)C(=O)NCC(=O)N[C@@H](C)C(=O)N1CCC[C@H]1C(=O)N1CCC[C@H]1C(=O)N1CCC[C@H]1C(=O)N[C@@H](CO)C(N)=O)C(C)C)[C@@H](C)CC"}, "B6": {"name": "Example 79 (peptide)", "peptide": "Y[Aib]EGTFISDYSI[αMeL]LDKK([AEEA-AEEA-γGlu-C20 diacid])HQ[Aib]DFVE[4Pal]LLAQGPSSGAPPPS-NH2", "modifications": "N-terminus assumed", "SMILES": "CC[C@H](C)[C@H](NC(=O)[C@H](Cc1ccccc1)NC(=O)[C@@H](NC(=O)CNC(=O)[C@H](CCC(=O)O)NC(=O)C(C)(C)NC(=O)[C@@H](N)Cc1ccc(O)cc1)[C@@H](C)O)C(=O)N[C@@H](CO)C(=O)N[C@@H](CC(=O)O)C(=O)N[C@@H](Cc1ccc(O)cc1)C(=O)N[C@@H](CO)C(=O)N[C@H](C(=O)N[C@@](C)(CC(C)C)C(=O)N[C@@H](CC(C)C)C(=O)N[C@@H](CC(=O)O)C(=O)N[C@@H](CCCCN)C(=O)N[C@@H](CCCCNC(=O)COCCOCCNC(=O)COCCOCCNC(=O)CC[C@H](NC(=O)CCCCCCCCCCCCCCCCCCC(=O)O)C(=O)O)C(=O)N[C@@H](Cc1c[nH]cn1)C(=O)N[C@@H](CCC(N)=O)C(=O)NC(C)(C)C(=O)N[C@@H](CC(=O)O)C(=O)N[C@@H](Cc1ccccc1)C(=O)N[C@H](C(=O)N[C@@H](CCC(=O)O)C(=O)N[C@@H](Cc1ccncc1)C(=O)N[C@@H](CC(C)C)C(=O)N[C@@H](CC(C)C)C(=O)N[C@@H](C)C(=O)N[C@@H](CCC(N)=O)C(=O)NCC(=O)N1CCC[C@H]1C(=O)N[C@@H](CO)C(=O)N[C@@H](CO)C(=O)NCC(=O)N[C@@H](C)C(=O)N1CCC[C@H]1C(=O)N1CCC[C@H]1C(=O)N1CCC[C@H]1C(=O)N[C@@H](CO)C(N)=O)C(C)C)[C@@H](C)CC"}, "B7": {"name": "Example 78 (peptide)", "peptide": "Y[Aib]EGTFISDYSI[αMeL]LDKK([AEEA-AEEA-γGlu-C20 diacid])HQ[Aib]DFVE[4Pal]LLAAGPSSGAPPPS-NH2", "modifications": "N-terminus assumed", "SMILES": "CC[C@H](C)[C@H](NC(=O)[C@H](Cc1ccccc1)NC(=O)[C@@H](NC(=O)CNC(=O)[C@H](CCC(=O)O)NC(=O)C(C)(C)NC(=O)[C@@H](N)Cc1ccc(O)cc1)[C@@H](C)O)C(=O)N[C@@H](CO)C(=O)N[C@@H](CC(=O)O)C(=O)N[C@@H](Cc1ccc(O)cc1)C(=O)N[C@@H](CO)C(=O)N[C@H](C(=O)N[C@@](C)(CC(C)C)C(=O)N[C@@H](CC(C)C)C(=O)N[C@@H](CC(=O)O)C(=O)N[C@@H](CCCCN)C(=O)N[C@@H](CCCCNC(=O)COCCOCCNC(=O)COCCOCCNC(=O)CC[C@H](NC(=O)CCCCCCCCCCCCCCCCCCC(=O)O)C(=O)O)C(=O)N[C@@H](Cc1c[nH]cn1)C(=O)N[C@@H](CCC(N)=O)C(=O)NC(C)(C)C(=O)N[C@@H](CC(=O)O)C(=O)N[C@@H](Cc1ccccc1)C(=O)N[C@H](C(=O)N[C@@H](CCC(=O)O)C(=O)N[C@@H](Cc1ccncc1)C(=O)N[C@@H](CC(C)C)C(=O)N[C@@H](CC(C)C)C(=O)N[C@@H](C)C(=O)N[C@@H](C)C(=O)NCC(=O)N1CCC[C@H]1C(=O)N[C@@H](CO)C(=O)N[C@@H](CO)C(=O)NCC(=O)N[C@@H](C)C(=O)N1CCC[C@H]1C(=O)N1CCC[C@H]1C(=O)N1CCC[C@H]1C(=O)N[C@@H](CO)C(N)=O)C(C)C)[C@@H](C)CC"}, "B8": {"name": "Example 80 (peptide)", "peptide": "Y[Aib]EGTFISDYSI[αMeL]LD[Orn]K([AEEA-AEEA-γGlu-C20 diacid])HQ[Aib]DFVE[4Pal]LLETGPSSGAPPPS-NH2", "modifications": "N-terminus assumed", "SMILES": "CC[C@H](C)[C@H](NC(=O)[C@H](Cc1ccccc1)NC(=O)[C@@H](NC(=O)CNC(=O)[C@H](CCC(=O)O)NC(=O)C(C)(C)NC(=O)[C@@H](N)Cc1ccc(O)cc1)[C@@H](C)O)C(=O)N[C@@H](CO)C(=O)N[C@@H](CC(=O)O)C(=O)N[C@@H](Cc1ccc(O)cc1)C(=O)N[C@@H](CO)C(=O)N[C@H](C(=O)N[C@@](C)(CC(C)C)C(=O)N[C@@H](CC(C)C)C(=O)N[C@@H](CC(=O)O)C(=O)N[C@@H](CCCN)C(=O)N[C@@H](CCCCNC(=O)COCCOCCNC(=O)COCCOCCNC(=O)CC[C@H](NC(=O)CCCCCCCCCCCCCCCCCCC(=O)O)C(=O)O)C(=O)N[C@@H](Cc1c[nH]cn1)C(=O)N[C@@H](CCC(N)=O)C(=O)NC(C)(C)C(=O)N[C@@H](CC(=O)O)C(=O)N[C@@H](Cc1ccccc1)C(=O)N[C@H](C(=O)N[C@@H](CCC(=O)O)C(=O)N[C@@H](Cc1ccncc1)C(=O)N[C@@H](CC(C)C)C(=O)N[C@@H](CC(C)C)C(=O)N[C@@H](CCC(=O)O)C(=O)N[C@H](C(=O)NCC(=O)N1CCC[C@H]1C(=O)N[C@@H](CO)C(=O)N[C@@H](CO)C(=O)NCC(=O)N[C@@H](C)C(=O)N1CCC[C@H]1C(=O)N1CCC[C@H]1C(=O)N1CCC[C@H]1C(=O)N[C@@H](CO)C(N)=O)[C@@H](C)O)C(C)C)[C@@H](C)CC"}}, "note": "Substitutions are numbered along the chain they refer to. Starred links: 1 amine or outer side, 2 acyl side, 3 side chain; linkers in the order of their positions; H or OH if unused. Non-standard residues stand in square brackets, D forms with d. Groups on a side chain read outwards from the residue. No end group written: not given here. *: point of attachment. C20 diacid = O=C(O)CCCCCCCCCCCCCCCCCCC(=O)*; γGlu = O=C(O)[C@H](CCC(=O)[*:2])N[*:1]; 4Pal = N[C@@H](Cc1ccncc1)C(=O)O; αMeL = CC(C)C[C@](C)(N)C(=O)O; Orn = NCCC[C@H](N)C(=O)O; AEEA = NCCOCCOCC(=O)O; Aib = CC(C)(N)C(=O)O", "data": [{"target": "T1, human glucose-dependent insulinotropic peptide receptor (human, UniProt P48546 22-466)", "T1 sequence (looked up)": "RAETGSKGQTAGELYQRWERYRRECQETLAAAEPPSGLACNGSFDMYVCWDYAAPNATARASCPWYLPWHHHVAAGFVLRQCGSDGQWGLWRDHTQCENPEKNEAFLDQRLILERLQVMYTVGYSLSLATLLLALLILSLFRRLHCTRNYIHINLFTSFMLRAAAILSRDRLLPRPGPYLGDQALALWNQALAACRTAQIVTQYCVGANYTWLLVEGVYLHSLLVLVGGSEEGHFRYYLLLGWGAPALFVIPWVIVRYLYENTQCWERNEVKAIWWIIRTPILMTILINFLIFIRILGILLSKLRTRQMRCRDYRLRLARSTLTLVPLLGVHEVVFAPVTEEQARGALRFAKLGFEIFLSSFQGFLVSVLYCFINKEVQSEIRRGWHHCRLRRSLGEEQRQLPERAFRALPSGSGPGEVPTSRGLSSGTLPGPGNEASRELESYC", "test": "cell-based or functional assay", "units": {"hGIPR cAMP Rel EC50": "nM"}, "values": [{"binder": "B1", "hGIPR cAMP Rel EC50": 0.0167}, {"binder": "B2", "hGIPR cAMP Rel EC50": 0.0265}, {"binder": "B3", "hGIPR cAMP Rel EC50": 0.0182}, {"binder": "B4", "hGIPR cAMP Rel EC50": 0.0154}, {"binder": "B5", "hGIPR cAMP Rel EC50": 0.0282}, {"binder": "B6", "hGIPR cAMP Rel EC50": 0.0316}, {"binder": "B7", "hGIPR cAMP Rel EC50": 0.0125}, {"binder": "B8", "hGIPR cAMP Rel EC50": 0.0777}]}, {"target": "human glucagon receptor (human, UniProt P47871 26-477)", "sequence (P47871 26-477)": "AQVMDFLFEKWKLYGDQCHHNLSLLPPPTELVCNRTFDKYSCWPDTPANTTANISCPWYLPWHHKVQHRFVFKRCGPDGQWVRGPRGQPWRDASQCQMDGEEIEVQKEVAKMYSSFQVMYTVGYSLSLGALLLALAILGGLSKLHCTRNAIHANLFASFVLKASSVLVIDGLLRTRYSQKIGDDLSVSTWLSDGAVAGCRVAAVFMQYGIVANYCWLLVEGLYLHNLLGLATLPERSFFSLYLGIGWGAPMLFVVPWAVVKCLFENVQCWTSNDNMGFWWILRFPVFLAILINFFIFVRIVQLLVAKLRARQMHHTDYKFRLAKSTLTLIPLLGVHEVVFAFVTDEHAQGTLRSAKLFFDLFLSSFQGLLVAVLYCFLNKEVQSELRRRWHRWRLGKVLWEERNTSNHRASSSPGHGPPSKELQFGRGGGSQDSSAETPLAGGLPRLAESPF", "test": "cell-based or functional assay", "units": {"hGcgR cAMP Rel EC50": "nM"}, "values": [{"binder": "B1", "hGcgR cAMP Rel EC50": 627}, {"binder": "B2", "hGcgR cAMP Rel EC50": 2660}, {"binder": "B3", "hGcgR cAMP Rel EC50": 2170}, {"binder": "B4", "hGcgR cAMP Rel EC50": 1200}, {"binder": "B5", "hGcgR cAMP Rel EC50": "> 5000"}, {"binder": "B6", "hGcgR cAMP Rel EC50": "> 5000"}, {"binder": "B7", "hGcgR cAMP Rel EC50": 3000}, {"binder": "B8", "hGcgR cAMP Rel EC50": "> 5000"}]}, {"target": "human GLP-1 receptor (human, UniProt P43220 24-463)", "test": "cell-based or functional assay", "units": {"hGLP1R cAMP Rel EC50": "nM"}, "values": [{"binder": "B1", "hGLP1R cAMP Rel EC50": "> 5000"}, {"binder": "B2", "hGLP1R cAMP Rel EC50": "> 5000"}, {"binder": "B3", "hGLP1R cAMP Rel EC50": "> 5000"}, {"binder": "B4", "hGLP1R cAMP Rel EC50": "> 5000"}, {"binder": "B5", "hGLP1R cAMP Rel EC50": "> 5000"}, {"binder": "B6", "hGLP1R cAMP Rel EC50": "> 5000"}, {"binder": "B7", "hGLP1R cAMP Rel EC50": "> 5000"}, {"binder": "B8", "hGLP1R cAMP Rel EC50": "> 5000"}]}]}
